Results: article PMC7970798 (Computational and Structural Biotechnology Journal, 2021)
Where two headings read alike, the source gives them in different places. No end group written: not given here. *: point of attachment. Biotin = O=C1N[C@H]2[C@H](CS[C@H]2CCCCC(=O)*)N1

B1: CRB1 C-terminal tetradecapeptide (endogenous PALS1 ligand) (peptide)
peptide: Biotin-MWNLMPPPAMERLI

What was measured:
Experiment in all cases: SPR
[1] = molecular target: T1, PDZ domain of wild type human PALS1 protein (human, UniProt Q8N3R9 256-336)
T1 sequence: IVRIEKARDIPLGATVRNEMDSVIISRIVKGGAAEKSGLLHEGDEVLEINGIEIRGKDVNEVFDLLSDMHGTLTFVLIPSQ

[2] = molecular target: T1, PDZ domain of wild type human PALS1 …; remark: listed apart in the source
[3] = molecular target: B1

Binder: B1
- Kd [1]: 5.11 µM

B2: SARS-CoV-2 envelope E protein C-terminal tetradecapeptide (peptide)
peptide: Biotin-VKNLNSSRVPDLLV
- Kd [2]: 63 µM

B3: SARS-CoV-1 envelope E protein C-terminal tetradecapeptide (peptide)
peptide: KNLNSSEGVPDLLV
- Kd [2]: > 500 µM

B4: [change] variant of the PDZ domain of PALS1 (domain or fragment)
chain: IVRIEKARDIPLGATVRNEMDSVIISRIVKGGAAEKSGLLHEGDEVLEINGIEIRGKDVNEVWDLLSDMHGTLTFVLIPSQ
- Kd [3]: 18 µM
